Measured values taken from PMC6200766, “Fisetin targets YB-1/RSK axis independent of its effect on ERK signaling: insights from in vitro and in vivo melanoma models” (Scientific Reports, 2018).

How the values were obtained:
Settings in all cases: both partners purified
[1] = molecular target: T1, RPS6KA3 (RSK2, 86.3 kDa) recombinant human protein, full length, HIS-tag (human, UniProt P51812 1-740); test: SPR; Biacore T-200, 25 °C; GST-YB-1 (51-139), 60 RU, amine-coupled on a CM5 chip; RSK1 or RSK2 flowed at 100-0 nM without BSA, 30 ul/min; full kinetics; KD from ka and kd or steady state
T1 construct: p90 ribosomal S6 kinase 2 (RSK2, RPS6KA3), human, full length, 86.3 kDa; source: bought: Life Technologies, Italy

[2] = molecular target: T2, RPS6KA1 (RSK1, 88.5 kDa) recombinant human protein, full length, HIS-tag (human, UniProt Q15418 1-735); test: as above
T2 construct: p90 ribosomal S6 kinase 1 (RSK1, RPS6KA1), human, full length, 88.5 kDa; source: bought: Life Technologies, Italy

[3] = molecular target: T1, RPS6KA3 (RSK2, 86.3 kDa) recombinant …; test: SPR; Biacore T-200, 25 °C; GST-YB-1 (51-139) amine-coupled on a CM5 chip; RSK2 flowed at 50, 25, 12.5, 6.25, 3.125, 0 nM, 30 ul/min; 10 mM HEPES pH 7.4, 150 mM NaCl, 3 mM EDTA, 0.05% P20, 0.1% BSA; full kinetics

T1 sequence (P51812 whole entry): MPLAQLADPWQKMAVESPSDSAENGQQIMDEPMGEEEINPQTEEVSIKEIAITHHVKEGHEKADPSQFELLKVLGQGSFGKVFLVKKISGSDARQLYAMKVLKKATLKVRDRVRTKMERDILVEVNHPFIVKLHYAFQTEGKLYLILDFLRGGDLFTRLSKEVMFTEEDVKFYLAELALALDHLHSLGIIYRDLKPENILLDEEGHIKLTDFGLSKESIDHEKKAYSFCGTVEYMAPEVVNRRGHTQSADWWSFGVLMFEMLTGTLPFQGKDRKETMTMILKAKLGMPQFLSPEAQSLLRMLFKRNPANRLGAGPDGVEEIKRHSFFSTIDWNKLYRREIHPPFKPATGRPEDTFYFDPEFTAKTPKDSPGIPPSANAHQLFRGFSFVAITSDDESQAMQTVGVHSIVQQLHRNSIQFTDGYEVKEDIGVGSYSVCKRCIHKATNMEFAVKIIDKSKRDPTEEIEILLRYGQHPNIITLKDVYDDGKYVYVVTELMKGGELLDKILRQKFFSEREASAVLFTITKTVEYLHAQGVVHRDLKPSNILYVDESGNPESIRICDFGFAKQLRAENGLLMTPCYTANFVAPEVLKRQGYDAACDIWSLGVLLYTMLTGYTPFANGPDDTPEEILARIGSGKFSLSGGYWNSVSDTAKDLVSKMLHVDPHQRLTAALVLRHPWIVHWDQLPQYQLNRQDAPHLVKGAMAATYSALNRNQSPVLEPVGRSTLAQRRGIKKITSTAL
T2 sequence (Q15418 whole entry): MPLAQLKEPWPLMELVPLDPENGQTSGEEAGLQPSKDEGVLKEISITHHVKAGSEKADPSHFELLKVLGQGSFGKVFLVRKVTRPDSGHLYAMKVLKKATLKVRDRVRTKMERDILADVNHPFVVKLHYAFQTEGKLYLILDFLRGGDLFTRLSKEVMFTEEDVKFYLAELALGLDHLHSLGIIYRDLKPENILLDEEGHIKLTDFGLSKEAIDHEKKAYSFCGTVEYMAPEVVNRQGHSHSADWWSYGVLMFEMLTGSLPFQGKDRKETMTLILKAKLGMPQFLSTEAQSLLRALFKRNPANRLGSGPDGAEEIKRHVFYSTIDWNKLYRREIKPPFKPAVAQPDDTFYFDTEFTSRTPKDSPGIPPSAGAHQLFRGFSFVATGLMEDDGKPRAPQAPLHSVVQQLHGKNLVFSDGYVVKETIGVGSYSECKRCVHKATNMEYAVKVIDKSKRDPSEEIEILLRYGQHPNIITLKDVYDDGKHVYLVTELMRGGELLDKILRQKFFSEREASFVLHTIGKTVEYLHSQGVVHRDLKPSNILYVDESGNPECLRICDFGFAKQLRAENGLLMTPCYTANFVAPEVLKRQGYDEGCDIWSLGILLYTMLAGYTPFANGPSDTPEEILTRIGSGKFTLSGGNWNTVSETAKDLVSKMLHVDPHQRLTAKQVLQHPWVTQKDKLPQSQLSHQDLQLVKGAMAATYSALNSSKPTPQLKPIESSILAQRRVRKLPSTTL

Kd [1]: 534 nM
Kd [2]: 246 µM
Kd [3]: 402 nM
B1: YB-1 human recombinant protein with GST-tag at N-terminal (51-139 aa) (domain or fragment)
chain: not shown
notes: 35 kDa including GST tag; Immobilised by amine coupling (EDC/NHS) on a CM5 chip with its GST tag; source: bought: Abnova Corporation, Taiwan; not shown: GST, N-terminal, kept
